Measured values taken from the supplement of paper PMC12636428.

The sequences below were run on Saccharomyces cerevisiae (assay: transcriptional activation domain activity (GFP:mCherry ratio, weighted mean of sorted bins, harmonized to initial dataset scale) (arbitrary fluorescence ratio units); higher = stronger transcriptional activation). Conditions: beta-estradiol 1 µM; induction time 4 h.
Procedure, shortened: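 For this assay, yeast diploids with a GFP reporter carried barcoded protein tiles at URA3, each fused to an estradiol-inducible synthetic transcription factor. Induction was a 1:5 dilution into SC with 1 uM beta-estradiol for 4 hours at 30 °C, followed by sorting into 8 bins by GFP:mCherry ratio and barcode sequencing. Tiles under 50 reads were dropped, and activation activity was calculated as the read-weighted mean of bin median fluorescence, averaged across barcodes and linearly mapped onto the initial dataset scale.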
In the case of “IYYDPASRDKVYCSRAPIAYVYKRLVRMALESRFVQVAPVALKVLGIVLVMLY”, the “transcriptional activation domain activity” value was 62500.
For “EAEVTATGEKSSPARVVVLRARAADAGKLVSIAEIAKREIEKGTGGQGGGSGG”, the “transcriptional activation domain activity” value was 18100.
“MASQATTLRGYNIRKRDNVFEPKSSENLNSLNQSEEEGHIGRWPPLGYEAVSA” was tested, and the “transcriptional activation domain activity” value was 50300.
With “SLRVDTSVTCCKLRSFSHIVTSYIEVLFLLKILREFLYADLFVHIWLALSLLA” the “transcriptional activation domain activity” value was 62700.
For “ARLLPDTIHLYILVVASLVNTLCVLFLDCCFLLLFFLFFYFFYPFLLFLFASF”, the “transcriptional activation domain activity” value was 41200.
“PLYAYTIWSWLCQGVYFTLLTLLSFDQFQSLGEICFIFFELSFGNAMMVTLVS” was tested, and the “transcriptional activation domain activity” value was 80300.
For “KSSEAAPAEENKPSPEKNGKGKQGEDKGGNNGKENKGGDKGGGKGAQSKKGKK”, the “transcriptional activation domain activity” value was 31600.
“SHREEAHEKASESESESGSEEQGSGGEKSEPKPEAEADGAADEASPGEEEGSQ” was tested, and the “transcriptional activation domain activity” value was 24600.
With “VSVGLLDLLAYCGYGFIGVNATSVVKIFSSDSFWAVYGMFSYTMICLAFFTLR” the “transcriptional activation domain activity” value was 25800.
For “EKEKERKHKHRSRRDRSRSRDSDGGRDRRHRHRRDRSRSRDAHDDRERRHRHS”, the “transcriptional activation domain activity” value was 19000.
“MPPCGLVSLTCLTELVLGLNITACVVILVDGNHLIYILSLFFWCWILLTLPAT” was tested, and the “transcriptional activation domain activity” value was 35500.
With “MEVGSAAVAGPVLAAAHVPRKRRRPALSCEQCRKRKVKCDRTSPCGQCTRSKG” the “transcriptional activation domain activity” value was 32100.
For “EGEAPKAEEEEEKDAAPDGEGEQPAEADPEEEERQRRAAIAARMARLGGARLG”, the “transcriptional activation domain activity” value was 14200.
“GCDYVFSMYVLGAGLWLFIFYLPPIVFSIVCLCYLTLIWAVSWVLLWCLIFIL” was tested, and the “transcriptional activation domain activity” value was 53900.
With “CGLCALVYHSLRFQLQSNMDVLLFRYNGSYKMVVVAATTKHLLLEDIKIKLLC” the “transcriptional activation domain activity” value was 45700.
With “DTIYIFHALLVVFWVSLMQEPAFPYKLLIPILYITILLIPFTSQVFLPAVPVL” the “transcriptional activation domain activity” value was 49400.
With “EESGGESGGAADKNARVLSTALELALIVLDTCVELDGGRSLSLEHTALLLAAG” the “transcriptional activation domain activity” value was 69300.
For “IEDQTKYVTQAYLAATRIVTIISKLVETRHLIELPIYIRQSVTYAVLILFRLH”, the “transcriptional activation domain activity” value was 56400.
With “SRWFLVLFLLPYPRASPFFLVLYLFSLILHSRPCLYCIVLLTVLFTSSCYWAP” the “transcriptional activation domain activity” value was 53600.
For “AEEPAPEAPAPEEPAVEEAVPAEEAAPEAPAPVEEATPEKPVAAEEAAPEAPA”, the “transcriptional activation domain activity” value was 32600.
With “GVCLKVGITRPKKPNSGERKTARVRLSSGRMITAYVPGEGHNIQQHSVVLVRG” the “transcriptional activation domain activity” value was 51900.
“LHEQLESLMLRRLKRDVLTSLPTKSERILRVEMSALQTHFYKNILTKNFQALV” was tested, and the “transcriptional activation domain activity” value was 74100.
“PPYALGYFGESDHGFCSLKVDLVYSNFMIYYLIVVPRLLVYFYCLLILFFIAM” was tested, and the “transcriptional activation domain activity” value was 61600.
For “DAAKPAQGLFGGALAAGKSGETPKPAGSLFGAPSSSTKTGEEAKPAGGLFGAG”, the “transcriptional activation domain activity” value was 26100.
For “SDSDEEDEDERAEDAEVDTSASVNRLRDAQAEVETGDVTRRIAIVNLDWDHIK”, the “transcriptional activation domain activity” value was 29200.
“GSSQNTDQPHKSRKKRQREQDEDDTSTNKRSHRKSKKHKSSRKHKSSRKTAKT” was tested, and the “transcriptional activation domain activity” value was 25100.
“FCFFLFLLSFSSCYFFFLLLFLPLTFSSLLFLPIYFFSSSSSSFFLPFLFVSL” was tested, and the “transcriptional activation domain activity” value was 43000.
In the case of “LDSYPNVLTFAVYTYLRLIPEHRHIQLATLQQREIRFVVSMLRQKWNLCAVIG”, the “transcriptional activation domain activity” value was 30100.
In the case of “RLRKDVGPFSPDDIQKPSLTWIHVRRNNLLLMMAPVRSYTWKAAQTLGEIFGA”, the “transcriptional activation domain activity” value was 28000.
With “QKVGSDKTPGGGSSQYIWLIVYLSISLLSSVLVATTMLLIYTGSLRASVILHE” the “transcriptional activation domain activity” value was 53500.
With “VLAMVAQIRTGLWLLHYRDFMLRELCYDQDLYILQTALIILEPDLVFLLQFFE” the “transcriptional activation domain activity” value was 33500.
In the case of “AYHSAKHVIVPNDGKLLAMTDPLISDLDEDGQKGLLIISRGTALLLLGVYIAY”, the “transcriptional activation domain activity” value was 47300.
In the case of “EEDEEDEDDDDDDDDDDDDDDDDDDEKPVHHKKPAHHRHHHKSKPVHHESQPA”, the “transcriptional activation domain activity” value was under 6570.
In the case of “PDFYPLFYSRLIPLSVISFLVYTALFFLVFWPQYLFLVIFHGWGAWPTAIILF”, the “transcriptional activation domain activity” value was 52600.
With “MLRYFPTYRDEVVNAANYLNVVLSMDAFYYYQFCLNWTSTQLYDTWFNACFRI” the “transcriptional activation domain activity” value was 59100.
With “RRRWINSTVHNLCELIILPELFGFCCFSMRFFVFLDLLGTLILPATVVYLVYL” the “transcriptional activation domain activity” value was 51600.
“SSRKEDKSERRHRHRHRSRSRDRDQRHRRHHRSDSRERNQDGDGERRRRHRRS” was tested, and the “transcriptional activation domain activity” value was 26700.
In the case of “VKEKTDQAKAEDRKRAEKRGEQYEDSSDEEKERRRKARQKAKQGGGTGAAKAP”, the “transcriptional activation domain activity” value was 26200.
With “RVVSAFGWKADKHLGFALLKLCLEDRRIRSPMASLMLLAYYTVLTSLCPQVLA” the “transcriptional activation domain activity” value was 60900.
With “MAIGLSACSILFLFSFTCVFFSFLSCLFLHPFFFLSFLFSLSLSLSLFFFFFA” the “transcriptional activation domain activity” value was 66200.
For “PVALLSLCFNLCFQTCMHIVSLDLHYHFPNLSLGRSLNILRAFSFFVMIFFIS”, the “transcriptional activation domain activity” value was 88100.
“NTLDVSEGNQVINESASTNTSSALNCQSYTNNQDIMDILFQVTSGSVWDEFFV” was tested, and the “transcriptional activation domain activity” value was 149000.
In the case of “CDTVAHSAGRRERGRKQAGKRNDKERREGEERGKTGKTKRRGVARAGTGASAS”, the “transcriptional activation domain activity” value was 14800.
“MTSPPLIKEEQTSSDESQIQQQSKTRRPKTRASVACTSCRDRRIRCVVPSGKK” was tested, and the “transcriptional activation domain activity” value was 55700.
In the case of “QQAGRTMSEGKKKRNTGKEEGEEGDEERKRKRRAEKKRKQRKRRMSKSTGEEE”, the “transcriptional activation domain activity” value was 31700.
For “MTVIRFLKMIGPFFFLLLSFLLFPFFFFFIPFKMTLLSFLLLFPLFILHSVHC”, the “transcriptional activation domain activity” value was 47500.
“RNVYLSRFWYLSFYSGNQLRRDLNVIVGVGKNWNLPSWWAPILRYIAAPILSI” was tested, and the “transcriptional activation domain activity” value was 75600.
For “MQGWVHALFSFFFNLIVVALLSCLCFIHLSSSYYNLCPVLYLTTPCLFIRFYI”, the “transcriptional activation domain activity” value was 62000.
For “MCGGGWAFGLFFFFLYFFFFFLHIALLLPPLETVYFVLFFCMISRGLCFIFFF”, the “transcriptional activation domain activity” value was 65400.
“VSDYSMAQFRFLLKFLLVHGRWNYVRICKYTVGTFWKELLFYLTQALFQRSNG” was tested, and the “transcriptional activation domain activity” value was 46600.
“STTRQQRASLPLIHDIESFANDSVMANPLSDSASFLSEENEDDAFGALNYNSL” was tested, and the “transcriptional activation domain activity” value was 51500.
“DSNYLAFLKFDDLENEKFHSSASSISSPSYSSPSFSSYRNRKKSEFMDDESCT” was tested, and the “transcriptional activation domain activity” value was 73200.
For “LGGNSGRATPGGGESRASTRKSKSKGAAKSRSRSPSRGRNRAGSKKKAGAAAT”, the “transcriptional activation domain activity” value was 38700.
“LYLRLLVGYLFMILVLLCSHNMMIFLLRSLHHLLTFLTCPLHFFLLLLLLMIT” was tested, and the “transcriptional activation domain activity” value was 39000.
With “LQRPVRIMVDTKHSTVKTLVQEFVRIRPQRDHLRLAMLVLLCRDYFHKRVIVF” the “transcriptional activation domain activity” value was 49000.
In the case of “MSKRAAEGSDSAGSSKKVKQDDSASTVFQKDEEGNLYVDLSSMKRATVSVFRG”, the “transcriptional activation domain activity” value was 60400.
With “RKADPPKEKKKPAVPAAEGAAAPAKKEKKDKKDKEAAAVSVEATEVKEEAAPA” the “transcriptional activation domain activity” value was 13900.
“LSIPLYGLGGPAFSDDDEGEDLIPEHERYIQEAIDGYWVLVLRILVSNRPRKT” was tested, and the “transcriptional activation domain activity” value was 43800.
“APSPPPAPEPVPEMKAIEAAPEPEPEPEPEDKWDVPVVAKKGKKAKKGAASQA” was tested, and the “transcriptional activation domain activity” value was 25000.
In the case of “LRCVGFILYLLLLIGKIMAFKEIDLLQEHQNFWAKVIYNARGSNRSWDWLSMI”, the “transcriptional activation domain activity” value was 59600.
In the case of “MCLTGLWWFVCKFAFSFFLSAGLFFLIHPPLFLILLPLSSFFLFLSLAAASGF”, the “transcriptional activation domain activity” value was 31400.
“LLMGLYLSEICMIGLFVLRDAFGPMVLMVMFFVLSILVHLSLADAFSPLLYNL” was tested, and the “transcriptional activation domain activity” value was 52200.
“KKRNAKRPKVESEGEDELADAKKEADDDEDESPKKVSKASSSPEAKVKQSSVS” was tested, and the “transcriptional activation domain activity” value was 26200.
In the case of “FKCCAVAFPIVCFATPYTALIQRPLVQQAAMFGIMIVKCFAVIFAFPCSIILL”, the “transcriptional activation domain activity” value was 81600.
With “MVEGDEKPARNGGPALQVIVLGSGGGPREDNTTAFLVRSVASGWKRGSVLAVD” the “transcriptional activation domain activity” value was 55100.
“MDFNQLLAIFYDCIFPFREFYRWLYYGGVVQKNYFLHRELSFTLSNDAYLRFK” was tested, and the “transcriptional activation domain activity” value was 41100.
For “AGQLGYDPVFGICWYNNSDPAMKLRWMLGSQLFWLLFMSTSEVVFFLVLVCFM”, the “transcriptional activation domain activity” value was 43500.
For “GTLNAQVTICEYSSTGQPLNGQGGCYNLHPVFNWIHHCIMSIFLVFMIAWLPL”, the “transcriptional activation domain activity” value was 78500.
In the case of “QHLRSDPQMRLWLVMFLFLTFMVHTILSATLSIIFVSITYSLFWLPQIVRSAR”, the “transcriptional activation domain activity” value was 30800.
“FLVRLFVLPVTLCMLYRCSVSLDLSRLNGSARNEWFNYWNKALLLGMTLFSMR” was tested, and the “transcriptional activation domain activity” value was 62500.
With “AFRWIAAFYGLTLATHFTGTVILVSHIAHHVVQAKCILGHRGGPYFYIMRVLV” the “transcriptional activation domain activity” value was 61400.
For “IGVLHQVFFYKNLIWTFALLLFQIFCESNATYLFDYSLVLLFNLIFTSLPVIM”, the “transcriptional activation domain activity” value was 53200.
With “APSRRTGRTSTAGSASESRPTSSCTSPRRPPTPPARPPASPRTRRTSPRRPSA” the “transcriptional activation domain activity” value was 31000.
With “QSFQTLLLILFLPPPLISPFLYVTFFFFPFFPFFFALPRFWDRWALSAFFFLL” the “transcriptional activation domain activity” value was 49200.
“GGGGGGGGSYGAFGGGGKTCYTCGGVGHLSRDCVQGSKCYNCSGIVRDVILVE” was tested, and the “transcriptional activation domain activity” value was 67800.
With “NILRPSLGCILFILIRYVSIIVMVVSNYGVLATSFTVEVCNRYYLVAPVFKVL” the “transcriptional activation domain activity” value was 46800.
In the case of “QGTNHAYHEHILNTDMDLKILEDLCNISSLYEVPFGKHINHHDHNNAGNGCDG”, the “transcriptional activation domain activity” value was 83400.
In the case of “MVLVLLWTVEPFIFLFNLLLLILLMVWLPLILLFKLLFLNNITFLSFMIPNQL”, the “transcriptional activation domain activity” value was 45000.
For “IIRARIFSYLYYGVKKFTFLFPINTVITNMAATLLCAVLVIYCTLTILPMIYY”, the “transcriptional activation domain activity” value was 62200.
For “IYETVNTITELSCLLPGGPWFPHARELWWYASEPAGVRYVAVLLSPTLRSLRL”, the “transcriptional activation domain activity” value was 69700.
With “RLCPRLGLVELFFKNSAELSKVLKALGAAAATTLCTVVFPGYSHRLSFLQWYP” the “transcriptional activation domain activity” value was 62400.
For “EQPSAPAAAANSEEPDNKEAEKTETGAAAENKEAVANNGSESAEKEPAETSAS”, the “transcriptional activation domain activity” value was 23500.
In the case of “MPWFIVCPLIFCSFGPFDALLSVLFFFYEHHFLLVIFPLTLIMQFSFLLSYFS”, the “transcriptional activation domain activity” value was 53100.
